Source: publication PMC9482650, “Quantitative fragmentomics allow affinity mapping of interactomes” (Nature Communications, 2022)

Legend:
Assay in all cases: holdup assay
Set-up in all cases: key: below the threshold = too weak to quantify, mostly under pKd 3.1 to 4
[1] = molecular target: T1, TJP3_3, O95049
T1 sequence (O95049 375-456, limits assumed, looked up): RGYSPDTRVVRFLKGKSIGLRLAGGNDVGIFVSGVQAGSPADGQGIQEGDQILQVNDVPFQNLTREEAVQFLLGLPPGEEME

[2] = molecular target: MAST1, Q9Y2H9
[3] = molecular target: T2, FRMPD1, Q5SYB0
T2 sequence (Q5SYB0 52-145, limits assumed, looked up): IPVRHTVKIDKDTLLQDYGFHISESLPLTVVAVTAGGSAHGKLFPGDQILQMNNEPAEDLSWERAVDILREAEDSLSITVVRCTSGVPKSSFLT

[4] = molecular target: DLG2_3, Q15700
[5] = molecular target: T3, PCLO, Q9Y6V0
T3 sequence (Q9Y6V0 4491-4600, limits assumed, looked up): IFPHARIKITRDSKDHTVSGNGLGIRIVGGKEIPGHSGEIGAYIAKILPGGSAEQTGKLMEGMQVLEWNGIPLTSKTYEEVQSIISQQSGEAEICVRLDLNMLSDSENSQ

[6] = molecular target: GRIP2_4, Q9C0E4
Sequence of GRIP2_4, Q9C0E4 (Q9C0E4 446-548): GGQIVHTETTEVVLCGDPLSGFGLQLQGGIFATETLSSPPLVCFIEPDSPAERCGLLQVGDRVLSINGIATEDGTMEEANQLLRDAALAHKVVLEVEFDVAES

[7] = molecular target: GORASP1, Q9BQQ3
Sequence of GORASP1, Q9BQQ3 (Q9BQQ3 1-208): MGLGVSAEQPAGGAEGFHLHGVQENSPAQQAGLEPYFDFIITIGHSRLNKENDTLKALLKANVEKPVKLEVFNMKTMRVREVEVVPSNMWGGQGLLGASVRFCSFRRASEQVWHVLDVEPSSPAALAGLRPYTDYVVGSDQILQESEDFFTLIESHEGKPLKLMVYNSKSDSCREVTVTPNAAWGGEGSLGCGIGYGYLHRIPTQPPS

[8] = molecular target: T4, HTRA3, P83110
T4 sequence (P83110 354-453, limits assumed, looked up): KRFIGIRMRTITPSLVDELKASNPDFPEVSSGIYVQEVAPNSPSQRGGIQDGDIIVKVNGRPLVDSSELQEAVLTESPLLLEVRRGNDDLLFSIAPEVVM

[9] = molecular target: T5, ARHGEF11, O15085
T5 sequence (O15085 42-136, limits assumed, looked up): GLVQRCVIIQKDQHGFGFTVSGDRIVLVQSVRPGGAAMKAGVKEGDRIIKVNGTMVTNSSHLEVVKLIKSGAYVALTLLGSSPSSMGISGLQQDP

[10] = molecular target: GRIP2_5, Q9C0E4
Sequence of GRIP2_5, Q9C0E4 (Q9C0E4 544-642): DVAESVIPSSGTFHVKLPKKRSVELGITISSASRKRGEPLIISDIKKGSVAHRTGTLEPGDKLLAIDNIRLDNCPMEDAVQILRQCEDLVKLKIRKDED

[11] = molecular target: NHERF2_2, Q15599
Sequence of NHERF2_2, Q15599 (Q15599 142-238): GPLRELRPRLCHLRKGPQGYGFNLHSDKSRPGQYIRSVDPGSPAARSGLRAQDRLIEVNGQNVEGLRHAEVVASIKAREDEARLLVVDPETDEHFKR

[12] = molecular target: T6, LIN7A, O14910
T6 sequence (O14910 103-200, limits assumed, looked up): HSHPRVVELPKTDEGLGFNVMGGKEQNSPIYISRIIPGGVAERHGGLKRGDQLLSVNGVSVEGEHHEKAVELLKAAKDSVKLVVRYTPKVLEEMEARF

[13] = molecular target: T7, PDZD7_3, Q9H5P4
T7 sequence (Q9H5P4 857-944, limits assumed, looked up): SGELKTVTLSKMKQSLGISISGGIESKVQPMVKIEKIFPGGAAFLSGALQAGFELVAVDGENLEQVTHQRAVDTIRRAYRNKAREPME

[14] = molecular target: LAP2, Q96RT1
Sequence of LAP2, Q96RT1 (Q96RT1 other isoform, or with tags, fused parts or gaps): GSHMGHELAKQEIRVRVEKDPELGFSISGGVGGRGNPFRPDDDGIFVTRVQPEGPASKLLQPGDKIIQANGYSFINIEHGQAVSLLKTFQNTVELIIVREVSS

[15] = molecular target: T8, MPDZ_5, O75970
T8 sequence (O75970 695-796, limits assumed, looked up): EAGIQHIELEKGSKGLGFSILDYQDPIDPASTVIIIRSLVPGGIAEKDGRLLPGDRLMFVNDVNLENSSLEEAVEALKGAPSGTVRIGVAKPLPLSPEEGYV

[16] = molecular target: T9, MPP2, Q14168
T9 sequence (Q14168 180-250, limits assumed, looked up): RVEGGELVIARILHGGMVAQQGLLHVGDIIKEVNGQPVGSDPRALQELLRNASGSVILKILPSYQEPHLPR

[17] = molecular target: T10, DFNB31_3, Q9P202
T10 sequence (Q9P202 811-907, limits assumed, looked up): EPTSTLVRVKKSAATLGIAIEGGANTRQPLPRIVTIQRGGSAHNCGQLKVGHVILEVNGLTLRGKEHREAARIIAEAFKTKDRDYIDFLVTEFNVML

[18] = molecular target: DLG1_3, Q12959
Sequence of DLG1_3, Q12959 (Q12959 457-571): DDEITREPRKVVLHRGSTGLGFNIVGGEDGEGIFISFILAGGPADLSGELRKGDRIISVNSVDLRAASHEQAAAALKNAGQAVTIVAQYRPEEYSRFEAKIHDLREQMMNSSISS

[19] = molecular target: T11, NHERF3_3, Q5T2W1
T11 sequence (Q5T2W1 238-333, limits assumed, looked up): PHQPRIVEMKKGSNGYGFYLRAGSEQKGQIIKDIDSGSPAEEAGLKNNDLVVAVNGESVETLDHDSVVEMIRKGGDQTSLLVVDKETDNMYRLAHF

[20] = molecular target: IL16_4, Q14005
Sequence of IL16_4, Q14005 (Q14005 1229-1329): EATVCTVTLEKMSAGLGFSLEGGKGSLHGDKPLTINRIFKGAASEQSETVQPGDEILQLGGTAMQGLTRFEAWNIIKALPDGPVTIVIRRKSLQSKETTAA

[21] = molecular target: DLG2_2, Q15700
[22] = molecular target: LNX1_2, Q8TBB1
Sequence of LNX1_2, Q8TBB1 (Q8TBB1 371-470): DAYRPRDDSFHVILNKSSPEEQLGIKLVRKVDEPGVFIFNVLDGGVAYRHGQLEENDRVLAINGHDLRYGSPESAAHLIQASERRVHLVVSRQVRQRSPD

[23] = molecular target: SCRIB_1, Q14160
Sequence of SCRIB_1, Q14160 (Q14160 718-814): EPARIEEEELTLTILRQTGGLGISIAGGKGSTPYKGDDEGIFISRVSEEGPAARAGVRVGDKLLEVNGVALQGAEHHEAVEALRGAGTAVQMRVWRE

[24] = molecular target: T12, GRIP1_7, Q9Y3R0
T12 sequence (Q9Y3R0 999-1096, limits assumed, looked up): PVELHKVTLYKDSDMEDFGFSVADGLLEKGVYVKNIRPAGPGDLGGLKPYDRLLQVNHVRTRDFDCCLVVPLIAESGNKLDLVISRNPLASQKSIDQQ

[25] = molecular target: T13, TIAM2, Q8IVF5
T13 sequence (Q8IVF5 885-986, limits assumed, looked up): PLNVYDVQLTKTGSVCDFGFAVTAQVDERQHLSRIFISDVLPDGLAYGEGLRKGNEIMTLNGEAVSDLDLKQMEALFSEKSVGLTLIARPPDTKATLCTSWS

[26] = plain residues with an end cap or a label only (N-terminal biotin on a linker: ahx)
[27] = plain residues with an end cap or a label only (N-terminal biotin on a linker: ttds)
[28] = plain residues with an end cap or a label only (N-terminal biotin on a linker: gsgsgs; C-terminal amide)

Sequence of MAST1, Q9Y2H9 (Q9Y2H9 962-1065): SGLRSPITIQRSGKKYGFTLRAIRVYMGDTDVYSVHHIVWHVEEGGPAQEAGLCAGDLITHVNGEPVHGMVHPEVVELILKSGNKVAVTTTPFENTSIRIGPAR

B1: CNKSR2, Q8WXI2 (peptide)
chain: HTHSYIETHV
With B1 the pKd [1, 26] was “below the threshold”, the pKd [2, 26] was 4.57 and the pKd [3, 26] was “below the threshold”. The pKd [4, 26] was 4.54, the pKd [5, 26] was “below the threshold” and the pKd [6, 26] was “below the threshold”. The pKd [7, 26] was “below the threshold”, the pKd [8, 26] was “below the threshold” and the pKd [9, 26] was “below the threshold”. For the same binder, the pKd [10, 26] was “below the threshold”, the pKd [11, 26] was “below the threshold” and the pKd [12, 26] was “below the threshold”. For the same binder, the pKd [13, 26] was 4.51, the pKd [14, 26] was 5.51 and the pKd [15, 26] was “below the threshold”. The pKd [16, 26] was “below the threshold”, the pKd [17, 26] was “below the threshold” and the pKd [18, 26] was 3.85. For the same binder, the pKd [19, 26] was “below the threshold”, the pKd [20, 26] was “below the threshold” and the pKd [21, 26] was 4.42. The pKd [22, 26] was “below the threshold”, the pKd [23, 26] was 5.64 and the pKd [24, 26] was “below the threshold”. The pKd [25, 26] was 3.81.

B2: DLGAP4, Q9Y2H0 (peptide)
chain: IYVPEAQTRL
With B2 the pKd [1, 27] was “below the threshold”, the pKd [2, 27] was 5.01 and the pKd [3, 27] was “below the threshold”. For the same binder, the pKd [4, 27] was “below the threshold”, the pKd [5, 27] was “below the threshold” and the pKd [6, 27] was “below the threshold”. For the same binder, the pKd [7, 27] was “below the threshold”, the pKd [8, 27] was “below the threshold” and the pKd [9, 27] was 3.7. For the same binder, the pKd [10, 27] was “below the threshold”, the pKd [11, 27] was 4.84 and the pKd [12, 27] was “below the threshold”. For the same binder, the pKd [13, 27] was 4.31, the pKd [14, 27] was “below the threshold” and the pKd [15, 27] was “below the threshold”. The pKd [16, 27] was “below the threshold”, the pKd [17, 27] was “below the threshold” and the pKd [18, 27] was “below the threshold”. The pKd [19, 27] was 4.14, the pKd [20, 27] was “below the threshold” and the pKd [21, 27] was “below the threshold”. The pKd [22, 27] was “below the threshold”, the pKd [23, 27] was 5.3 and the pKd [24, 27] was 3.77. For the same binder, the pKd [25, 27] was “below the threshold”.

B3: LRP4, O75096 (peptide)
chain: ERKLSSESQV
With B3 the pKd [1, 27] was “below the threshold”, the pKd [2, 27] was “below the threshold” and the pKd [3, 27] was “below the threshold”. The pKd [4, 27] was 4.11, the pKd [5, 27] was “below the threshold” and the pKd [6, 27] was “below the threshold”. For the same binder, the pKd [7, 27] was “below the threshold”, the pKd [8, 27] was “below the threshold” and the pKd [9, 27] was “below the threshold”. For the same binder, the pKd [10, 27] was “below the threshold”, the pKd [11, 27] was “below the threshold” and the pKd [12, 27] was “below the threshold”. For the same binder, the pKd [13, 27] was “below the threshold”, the pKd [14, 27] was 3.74 and the pKd [15, 27] was “below the threshold”. The pKd [16, 27] was “below the threshold”, the pKd [17, 27] was “below the threshold” and the pKd [18, 27] was “below the threshold”. The pKd [19, 27] was “below the threshold”, the pKd [20, 27] was “below the threshold” and the pKd [21, 27] was 4.38. For the same binder, the pKd [22, 27] was “below the threshold”, the pKd [23, 27] was 3.63 and the pKd [24, 27] was “below the threshold”. For the same binder, the pKd [25, 27] was “below the threshold”.

B4: AXIN1_int, O15169 (peptide)
chain: TLSLTDSSVDGIPPYR
With B4 the pKd [1, 28] was “below the threshold”, the pKd [2, 28] was 3.68 and the pKd [3, 28] was “below the threshold”. For the same binder, the pKd [4, 28] was 3.67, the pKd [5, 28] was “below the threshold” and the pKd [6, 28] was “below the threshold”. The pKd [7, 28] was “below the threshold”, the pKd [8, 28] was “below the threshold” and the pKd [9, 28] was “below the threshold”. The pKd [10, 28] was “below the threshold”, the pKd [11, 28] was “below the threshold” and the pKd [12, 28] was “below the threshold”. The pKd [13, 28] was “below the threshold”, the pKd [14, 28] was “below the threshold” and the pKd [15, 28] was “below the threshold”. For the same binder, the pKd [16, 28] was “below the threshold”, the pKd [17, 28] was 3.91 and the pKd [18, 28] was “below the threshold”. For the same binder, the pKd [19, 28] was “below the threshold”, the pKd [20, 28] was “below the threshold” and the pKd [21, 28] was “below the threshold”. The pKd [22, 28] was “below the threshold”, the pKd [23, 28] was “below the threshold” and the pKd [24, 28] was “below the threshold”. For the same binder, the pKd [25, 28] was 3.9.

B5: HPV16-E6, P03126 (peptide)
chain: SSRTRRETQL
For B5, the pKd [1, 27] was 3.68, the pKd [2, 27] was 4.23 and the pKd [3, 27] was “below the threshold”. The pKd [4, 27] was 5.1, the pKd [5, 27] was “below the threshold” and the pKd [6, 27] was “below the threshold”. The pKd [7, 27] was 3.52, the pKd [8, 27] was “below the threshold” and the pKd [9, 27] was 4.15. The pKd [10, 27] was “below the threshold”, the pKd [11, 27] was 4.19 and the pKd [12, 27] was “below the threshold”. The pKd [13, 27] was 4.68, the pKd [14, 27] was “below the threshold” and the pKd [15, 27] was 3.67. For the same binder, the pKd [16, 27] was “below the threshold”, the pKd [17, 27] was “below the threshold” and the pKd [18, 27] was 4.7. The pKd [19, 27] was 3.72, the pKd [20, 27] was “below the threshold” and the pKd [21, 27] was 4.93. For the same binder, the pKd [22, 27] was 3.47, the pKd [23, 27] was 5.42 and the pKd [24, 27] was “below the threshold”. For the same binder, the pKd [25, 27] was “below the threshold”.
